The text below walks through data of patent publication US20220098304A1 (JIANGSU HENGRUI MEDICINE, published 2022).

The target of experiment [1] is T1, Human PD-1-IgG1Fc fusion protein (human).
T1 construct: also called PD-1-Fc; Hu PD-1-Fc
The experiment can be described thus: competition ELISA, PD-1-Fc coated, competitor biotin-labeled PD-L1. On the procedure: (§1) CB buffer pH 9.6 (1.59 g Na₂CO₃ and 2.93 g NaHCO₃ dissolved in 1 L distilled water) was used to dilute PD-1-Fc to 1 μg/ml, which was added to the 96-well plates at a volume of 100 μl/well and allowed to stand at 4° C. for 16 h-20 h. PBS buffer was aspirated from the 96-well plates, and the plates were washed with PBST (pH 7.4 PBS containing 0.05% tween20) buffer once. 120 μl/well PB ST/1% milk was added and incubated at room temperature for 1 h for blocking. The blocking solution was removed and the plates were washed with PBST buffer once. 90 μl anti-PD-1 antibody to be tested diluted to appropriate concentration with the sample diluent (pH 7.4 PBS containing 5% BSA, 0.05% Tween20) was added and pre-incubated at 4° C. for 1 h. […] The reaction system was removed and the plates were washed with PBST 6 times. 100 μl/well Streptavidin-Peroxidase Polymer 1:400 diluted with PBST buffer was added and incubated with shaking at room temperature for 50 min. The plates were washed with PBST 6 times. 100 μl/well TMB was added and incubated at room temperature for 5-10 min. 100 μl/well 1 M H₂SO₄ was added to stop the reaction.
Background: ELISA stands for enzyme-linked immunosorbent assay.

Experiment [2] concerns the target T1, Human PD-1-IgG1Fc fusion protein. In words: competition ELISA, PD-1-Fc coated, competitor biotin-labeled PD-L2. On the procedure: as §1
Experiment [3] addresses T2, Human PD-1-His protein (Cat. #10377H08H, Sino Biological) (human, UniProt Q15116 25-167).
T2 construct: Bought protein; also called hPD-1-His; hu PD-1-his; not shown: His tag of the bought protein
In words: ELISA, PD-1-His coated, HRP anti-human IgG detection.

Experiment [4] deals with T2, Human PD-1-His protein (Cat. …). In words: SPR (Biacore), antibody captured on Protein A chip, PD-1 in flow. The text has this: (§2) IgG was affinity captured by using a Protein A biosensor chip (Cat. #29127556, GE). Human PD-1 antigen (Cat. #10377H08H, Sino Biological) and Cyno PD-1 antigen (purchased from Sino Biological) flowed across the surface of the chip, and the binding and dissociation curves were obtained by real time detection of PD-1 antibody and antigen PD-1 reaction signals by a Biacore T200 instrument. After the dissociation of each experimental cycle was completed, the biosensor chip was washed and regenerated with 10 mM Glycine-HCl pH 1.5 buffer. The experimental buffer system was 1×HBS-EP buffer solution (Cat #BR-1001-88, GE). After the experiment, GE Biacore T200 Evaluation version 3.0 software was used to fit the data with a (1:1) Langmuir model, and the affinity value was obtained.

The target is the same in experiment [5]. In words: SPR (Biacore T200), antibody captured on Protein A chip, antigen in flow, 1:1 Langmuir.
Source text: as §2

The target of experiment [6] is T3, Cyno PD-1 antigen (purchased from Sino Biological) (cynomolgus monkey (Cyno; simian), UniProt B0LAJ3 25-170).
T3 construct: Bought protein, construct not described; also called simian PD-1; not shown: Tag or carrier of the Sino Biological product (probably a His tag)
The experiment is described as above.
Source text: as §2

B1: H005-1 (positive control anti-PD-1 antibody, see H005-1 antibody in WO2015085847) (antibody, V domains shown)
VH: EVQLVESGGGLVQPGGSLRLSCAASGFTFSSYMMSWVRQAPGKGLEWVATISGGGANTYYPDSVKGRFTISRDNAKNSLYLQMNSLRAEDTAVYYCARQLYYFDYWGQGTTVTVSS
VL: DIQMTQSPSSLSASVGDRVTITCLASQTIGTWLTWYQQKPGKAPKLLIYTATSLADGVPSRFSGSGSGTDFTLTISSLQPEDFATYYCQQVYSIPWTFGGGTKVEIKR
In the case of B1, the IC50 in experiment [1] was found to be 0.11 µg/mL. This molecule showed an IC50 in experiment [2] of 0.225 µg/mL. Also, in experiment [3], the EC50 is 0.113 µg/mL and the “OD value MAX” value is 1.21 OD.

B2: Hu23-11.IgG4AA (antibody, V domains shown)
VH: EVQLVQSGAEVKKPGSSVKVSCKASGGTFSDYEMHWVRQAPGQGLEWMGLIDPETGGTVYNQKFKDRVTITADKSTSTAYMELSSLRSEDTAVYYCARERFSYYGSTSDWYFDVWGQGTTVTVSS
VL: DIVMTQTPLSLPVTPGEPASISCRSSQSLVHSTGNTYLEWYLQKPGQSPQLLIYKVSNRFSGVPDRFSGSGSGTDFTLKISRVEAEDVGVYYCFQGSHVPYTFGGGTKVEIKR
notes: Full-length IgG4-AA, kappa; also called Hu23LCDR1 (N28T)
In experiment [1], B2 came in with an IC50 of 0.0924 µg/mL. Further, in experiment [4], the Kd worked out at 2.71 nM, the koff came to 0.000114 s⁻¹ and the kon stood at 42200 M⁻¹ s⁻¹. Further, in experiment [5], the dissociation constant Kd is 1.86 nM, the koff came out at 0.000113 s⁻¹ and the kon came to 60600 M⁻¹ s⁻¹. In experiment [6], this molecule gave a Kd of 2.62 nM, a koff of 0.000126 s⁻¹ and a kon of 47900 M⁻¹ s⁻¹. Further, the IC50 in experiment [2] came to 0.245 µg/mL. For the same molecule, in experiment [3], the EC50 stood at 0.237 µg/mL and the “OD value MAX” value stood at 1.46 OD.

B3: Hu32a-85.IgG4AA (antibody, V domains shown)
VH: EVQLVQSGAEVKKPGSSVKVSCKASDFTFTDYEIHWVKQAPGHGLEWIGLFDPETGGIVYNQKFKGKATLTADKSTSTAYMEFSSLRSEDTAVYYCTREGYNRDWYFDVWGQGTTVTVSS
VL: B2 VL
notes: Full-length IgG4-AA, kappa
For the molecule B3, the IC50 in experiment [1] stood at 0.0786 µg/mL. In experiment [4], the Kd came out at 3.18 nM, the koff worked out at 0.000315 s⁻¹ and the kon stood at 99000 M⁻¹ s⁻¹. For the same molecule, in experiment [5], the Kd turned out to be 3.25 nM, the koff was 0.000278 s⁻¹ and the kon amounted to 85600 M⁻¹ s⁻¹. Further, in experiment [6], binding was characterised by a dissociation constant (Kd) of 4.11 nM, the koff came to 0.000475 s⁻¹ and the kon amounted to 116000 M⁻¹ s⁻¹. Further, the IC50 in experiment [2] is 0.206 µg/mL. Moreover, in experiment [3], the EC50 was found to be 0.136 µg/mL and the “OD value MAX” value was determined as 1.26 OD.

A word on the IC50: it is the point on the concentration scale where inhibition reaches its midpoint. The term EC50 denotes the midpoint of the concentration-response curve. The Kd is the concentration at which binding is half-saturated. A word on the koff: it is the first-order rate constant of dissociation. As a reminder, the kon is the second-order rate constant of association.
